Test results: patent publication US20050276784A1

What was measured:
[1] = biological target: c-kit receptor of the W^v allele, on W^v/W^v mast cells (mouse) (UniProt P05532)
[2] = biological target: c-kit receptor (wild type), on mast cells and on NIH ψ2 cells expressing the c-kit cDNA (mouse) (UniProt P05532)

KL (c-kit ligand), soluble form purified from conditioned medium of Balb/3T3 fibroblasts (from UniProt P20826)
proliferation of mast cells (^3H-thymidine incorporation) (% of +/+ values) [1]: 10
half maximal proliferation of +/+ mast cells (^3H-thymidine incorporation) (ng of protein in 0.2 ml) [2]: 0.5
